This is an account of results in paper PMC9666519.

The target of assay [1] is 20S proteasome core particle of Vairimorpha necatrix (Vairimorpha necatrix (endogenous in spores)). Kind of assay: cryo-EM structure; 26S proteasomes from germinated sporoplasms, purified with 20 mM ATP; 8.3 Å map without symmetry, AlphaFold models of the RP subunits docked as rigid bodies.
For assay [2] the target is unchanged. Kind of assay: cryo-EM structure; proteasomes from dormant V. necatrix spores, bead-beaten without ATP, lysate on Superose 6 Increase in 50 mM Tris pH 7.4, 300 mM NaCl, 5 mM DTT; 2.8 Å map of the 20S CP, C2 symmetry.

In assay [1], “19S regulatory particle of the Vairimorpha necatrix proteasome (complex)” yielded a percent of proteasome particles capped by RP of 12% and a percent of proteasome particles capped by RP on both ends of 1.5%.

In the case of “PI31-like protein (PI31L) of Vairimorpha necatrix (natural protein)”, the stoichiometry N (PI31L per 20S core particle) in assay [2] amounted to 2.
